Experimental findings from a protein production outcome set (Wang et al. 2014) are described below.

The nature of the data set: label from the status in PepcDB records.
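Also: failed if final PepcDB status was selected cloned or expressed and not failed if soluble or beyond.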

Take “MIIERLVGNLRDLNPLDFSVDHVDLEWFETRKKIARFKTRQGKDIAIRLKDAPKLGLSQGDILFKEEKEIIAVNILDSEVIHIQAKSVAEVAKICYEIGNRHAALYYGESQFEFKTPFEKPTLALLEKLGVQNRVLSSKLDSKERLTVSMPHSEPNFKVSLASDFKVVVK”: the protein production result is on record as “not failed”.

For the sequence “MIIETERLLLRPFNEQDVDALYLMNSNPAMLKYIPTAPFTDREQARELFHNVILQDYQQRGFGRWAVEHKADNRVIGFCGPKFIPEFNEVEIGYRYFPEYWGKGIGTEAAEAALSVFPQFGIKQTIALILEGNLGSETVAKRVGMYWREHSEFMGHKINVYAKIL”, the protein production entry is on record as “failed”.

Consider “MIIHTLHRYILRNLLVGLAVGSVALIVLIWLINSLKFLDWFVNKGLSVATFLRLTLLLMPGFLTVFIPIALFAVVLFTYNRLAADRELIVMRAAGMGPWQLARPALALCAVLTGVGYWLTLSVVPAMEGAFEAIKYEVRGEVSSLVIKEGQFNQMKDGLIVYAGERAKDGRLIDLMIHDTTGKTSDLTVMAESGALVREGEGARILLINGNRQERNRQTGKVNFLYFDSYAVDLGGKAASTEMRFREERERPLSELISLKAGDRIDPDYPFTYEERHIRRMRMEAHLRLLRPLAHIGFLLIGLAAVLTGEFDRRGGNKRVILAVALVVLFQAGSLGAATVAKKSLDGLLLLDLMTLLPILVGWIWLVWPSERWGRRRLAPRRGRTAAPALGGGAGR”, for which the protein production entry was “failed”.

For “MIIRIVQNIQRINKEGNAPLYISFYLGKEKVVIPCKLSVPTTKFDSKTGMLRGTNKEAKDINLIIERLKAKVNDILVKHRLKNLTLNKEAFMREYNNPSDFKSFHDFVASYMKTYSRRLEIGTFRHHKSCMRKFKEYCEGLQFHELTEDFLRDYLIYMKKTLCNADSTAQRNLSTIKIYVSAAIKKGYMENDPFKDFGVKRIKSNIDYLTEEELIKFISLYYDRRLPERLERTLGFFLFMCFTSLHISDARHVCLEQINNGILTYYRIKNRNCKPEAIKIPLSIPAFKIIEELQGKRKEGH”, the protein production entry is on record as “failed”.

For “MIIRQGFKFRLEASDTQGARLRVLCGHARFVWNQALAKCHEAADAEGEYVPRYETMAKWVTAWKREPDTEWLKEAYTDNLQQKLKDLDTGWQRYFKKVEGAQRPRFKKKGKSRDSVRFVNFQKYCKIDNRRVKLPAGLGWVRFRKSREIVGAIKNCTVGFEGGRWFISFQTEREVSEPAHPSASMIGVDMGVARFLTLSDGTFIEPVSAFKVNQGNLARAQRALARKVKFSANWQKQKAKINRLHSRIANLRRDTLHKASTQISNNHAMIVIEDLKVGNMSRSAKGDVDNPGVNVKAKSGLNRSILDQGWYEFRRQLEYKQAFRGGGVLAVPAHHTSQTCPECQHVSPDNRTSQARFECVKCGFKENADLVGAINIQARGHRVLACGEFGLPDSVKQEPVRNREEVAPSAAHAALGIPHRRC”, the protein production entry is “failed”.

Consider “MIITKNISLPELYQEWLDLKIMPSNRSDVTKKKYLSRKVTLEKLFGDKPISQIRPSEYQRIMNNYGQRVSRNFLGRLNTGVKQSLQMAIADKVMIEDFTQNVELFSTVKLEHHHHHH”, for which the protein production entry was “not failed”.

As to “MIIYDQHVHTSFSFDSNEKMEDYMKLAGQDFVSTEHLEFNNPEVQNHDSIPDYTKYVAEIERLKKATGKRVHKGIEIGMSAGQADKIKDYLAHHTFDIKLLSFHQDGTKDFGSNMVSHLDPLQVTDQYYQLMWKGINEFHDADVLAHFDYGVRRLSLTSGQFSTTAGVLLTNIFKVAIQNNLAFELNTKSMYKYHNIGLYDYAIEIYKQLGGKRYTIGSDAHDATHYEDHFRDALDMLKAHDIHHINVYRQGAMTVVPIDDIPEDL”, the protein production result is “failed”.

Turning to “MIKEFSDPLYGFVRVGEAGLRLIDSFPFQRLRYVKQLGLAYLVFPSAQHTRFEHSLGVYHITERICESLKVKEKELVKLAGLLHDLGHPPFSHTTEVLLPRERSHEDFTERVIKETEIYEILKQDYSHEDIERLVRITLGKPEDEEEKLLSEIITGEFGSDRMDYLRRDAYFCGVSYGFFDYDRLISTLRVYENKVVVDESGLRALENFLISRYFMYVQVYFHKVVRILSIHLVEFLKKLISQEDFTDINNFLRLNDAFVISELFKRKAFREDFERIFQRKHFKTLLSTENYEKFSETKERLLEKFPQEKVRFDEVEKEVYGGNIYVLSSEGLKKAHELSPLIASLKPIKLYRIYVDRQLWEKARSELKLS”, the protein production entry is “not failed”.

In the case of “MIKEWATVVSWQNGQALVSCDVKASCSSCASRAGCGSRVLNKLGPQTTHTIVVPCDEPLVPGQKVELGIAEGSLLSSALLVYMSPLVGLFLIASLFQLLFASDVAALCGAILGGIGGFLIARGYSRKFAARAEWQPIILSVALPPGLVRFETSSEDASQ”, the protein production entry was “failed”.

With “MIKGEQKRYSEMTKEELQQEIAMLTEKARKAEQMGMVNEYAVYERKIAMAKAYMLNPADFHPGEIYEIEGAPGEYFKVRYLKGVFAWGWRLKGNGEEEALPISLLRKPNLPQS”, the protein production result is given as “not failed”.

Take “MIKGTGHMIVNIANDRGMSIDSIRKTIKESVLIAYKKYFGSNENAFIKFDDDTGDLSVYAKKKIVKEVKDSLLEILEKDISKENIVEGDYAYIEINPKVFDRLSIQVAKQRTKNDLQGIEDNEILSEFKSKLNKVVIGYVQQNRNGDLYVNLGNTDGIIPKKYQSPREVYNLNDKIRVLVYNVKKGKNGIEVILSRTHPKFIEELLALEIPEIEEGIIKIHKIVRDPGYRIKVAVYSEKEEIDPVGPCIGQKGVRIQSIIKELEGEKIDIIPYSKDIKEFIKDSLTPSKIEHVYILDEDLHKALVVVSDDQLSLAIGKMGQNVRLANRLLDWAIDVKTSSQFAEMKANSEFKQETLEMFDKVMQDVVEEEQFEEISKISDLKLLDPSVISNLSKEGFDDINNFLQADEGVLFNLGVSYEKQEEINKILKEGMIIIANDNDESMEKVEEDEELLCPECGVVINENMTSCPGCKIGLSFEFEEE”: the protein production entry was “failed”.

Consider “MIKLIYKPLWLILLIFFSLKAIAEDHYPTAPSPFYYVSDYTKTLNQQEWRTLEDALINNRSKTSSQIIVVMIPSTDGEEIARYAHNLFNKWGIGRVKHNENNGVLLLIAKNDRKLFIATGRGLESALPDAIAATIIRHHITPYFKQNLYAEGIASGLSAIMAAINGEFAAYDEYQSSNNQTLDGFFFFLFAAFVIFMMFRPTRNSQYISRSNTKPFQQILRHSRYHHDTSRDLYRGGSGDSFGGGSSGGGGAGGSWLEHHHHHH”, for which the protein production entry is given as “failed”.

For the sequence “MIKQSPKYITPLNEQNVNKDNANLLVCPFAGASNSAFNSWRSTDISGLNCQLVNYSGHGCRFKEPAFNDIGLLANELITIIKKFYPPRHNSLLLCGHSMGAQVAFETAIQLEKNGWELSGLILSGCQAPHIQARRLLSDLNDDDFIQQLIAIGGCDAELIKQPQLLKQFMPLLRADFLATERYFFQKSTKRLFHTPVLLMYGSHDSEADKNEVEAWQDWIDKHCTINCIAGDHFYPITRPNTFCRFIIDFYHQ”, the protein production entry is on record as “failed”.

“MIKSDDAGKLILRLALGILVIMHGLAKLSSGVGGIAGMLSSHGLPGFLAYFAYVGEIVGPLLIILGIYCRLGALLVVLNMVVAILLAHMGQLFSISNTGGWALELQGMFLFGALALAFMGAGRFSLAGSGGRWN”: the protein production entry is reported as “failed”.

Take “MIKSTNIQAIGSGIMHQINNVYSLTPLSLPMELTPSCNEFYLKTWSEWEKNGTPGEQRNIAFNRLKICLQNQEAELNLSELDLKTLPDLPPQITTLEIRKNLLTHLPDLPPMLKVIHAQFNQLESLPALPETLEELNAGDNKIKELPFLPENLTHLRVHNNRLHILPLLPPELKLLVVSGNRLDSIPPFPDKLEGLALANNFIEQLPELPFSMNRAVLMNNNLTTLPESVLRLAQNAFVNVAGNPL”: the protein production result is “failed”.

Take “MIKVEKEVSNDYIIKGFKHFTQLATEYFQGHPDCNAARKRMRDTIDANLQLKAELTAASYTEHTTLLSPKMQQIIWAHWGPPIISLSENHANELEHHHHHH”: the protein production entry was “failed”.

For the sequence “MIKVGVIGFGTVGQGVVESLVQLERGLRKEVTLEMLLVTNRRKHEHSEQYALVTDDWETFAARYYDVVFEAAGGIEPVYDYVRFFLKKGVPVVTANKKLVAERGEELERLAAENDTYLCYEAAVAGGIPILNAIKGTLATTSFTSVAGILNGTTNYILTGMIEQNRPFQDMLEEAQAKGYAEADPTDDIEGYDAWYKIRILARLCFGIWPNRDDISRSGLHDVLDWHVELGQSLGLTLKLDGRASVKNNTIIGSVAPAFFTNDHPFSTVYGVTNAVVLEGKAIERLLFTGPGAGKEATANSMVEDYLFHERYKGERQPMLIKEKEQNRIANVLVMVAAHEKKEAEKVVEHLPCQRINTFAADEGEAWWLKVYEDVIPFISKQLGLSLYRVYGAFEKQLVTTNMHHPSSIDETLEQKA”, the protein production entry is reported as “failed”.

On to “MIKYILGIVIFIAIVLVAITIGANNDQIITFNYIVAESQFQLSSLVAILFGLGLILGWLITAFFYIKLKLKNMALARQVKRQTLQINELTTTRDKVV”, for which the protein production result is on record as “failed”.

On to “MIKYLIEKEFKQLLRNSFLPRLIFIFPCMIMLLMPWAANLEIKNIRMNIIDNDHSVISRRLVDKITASTYFQTTALPDSYEKGMEAIEAGTADLLLEIPRGFEKDWVNGGAANVLLAVNAVNGTKGGLGSSYLSAIVNDYGEELRTESGTTSFSADGNLPRIDILTQNLFNARLDYKLFMVPALMVMLLTMLCGFLPALNIVGEKEAGTIEQINVTPVGKFTFILAKLIPYWLIGFVVLTLCFVLAWTLYGIFPVGHFWVIYCFSIVFVLAVSGLGLVISNHSATMQQAMFVMWFCMLILILMSGLFTPIRSMPEWAQWITMLNPLKYFMQVMRMVYLKGSGFIDLLPQLGALLAFALLFNVWAVKSYRKSG”, for which the protein production result was “failed”.

Take “MILEDLNQLPAAEASHTFMQCSASAWVKKMVTARPFSSELAIKKAADDAWQGLTEQDYFEAFEGHPKIGDVSSLRAKYANTKELAGNEQGLVKEANDDVLEVLSQGNSDYEKKFGFIFIVCATGKSAKQMSDLLQARLPNNKTQELVNAAEEQRKIFQLRIDKALAEGLEHHHHHH”: the protein production result is given as “failed”.

For “MILGIDVGGTSVKFGLVTPEGEIQNATRFMTADWVNGIGFVESMKLEIGNFLKQYPIVKGVGIGWPGLVSLDRTKVILLPNIPSVVNVPIVEILRSEFPHIHFKIENDAKCAALGEYYFGENKRMQTFILLALGTGVGSGVMMNGKLFIGGRGNGTEVGHMLTTRGKSLENQVGINHLIAYTHEQLALDVAKKSSLHTIAELSPKVIADHAAQGDALALAVWADIGTIIGESLVNIVRVMDLNNILLGGGISGAFDYFVPNLKKAMLEHLPTYYTDDMYIGKATLENDAGLLGAAGLIMEAI”, the protein production entry was “not failed”.

As to “MILIRNVRLVDARGERGPADVLIGEGRILSLEGGEAKQVVDGTGCFLAPGFLDLHAHLREPGEEVKEDLFSGLLAAVRGGYTDLVSMPNTKPPVDTPEAVRALKEKAKALGLARLHPAAALTEKQEGKTLTPAGLLREAGAVLLTDDGRTNEDAGVLAAGLLMAAPLGLPVAVHAEDAGLRRNGVMNDGPLADLLGLPGNPPEAEAARIARDLEVLRYALRRSPATPRLHVQHLSTKRGLELVREAKRAGLPVTAEATPHHLTLTEEALRTFDPLFKVAPPLRGEEDREALLEGLLDGTLDAIATDHAPHTLAEKEKDLLRAPFGIPSLEVAFPLLYTELHLKRGFPLQRLVELFTDGPRRVLGLPPLHLEEGAEASLVLLSPKERPVDPSAFASKARYSPWAGWVLGGWPVLTLVAGRIVHEALK”, the protein production entry is “not failed”.

Take “MILKKEYSYESLRKKGAKKKKNFLCLQKYAMIYLVIRRYPYMSFGQKFKHFLAPLDEDDILEVEQDAEEEDAQTISQYEQQRSRMNKLPNDTKMVLFEPRSFDEADEIARRLKENKAAVVNLHKLQREYAQRTIDFLTGVIFALDGSIQKIGHNVILCTPNNVPVQGQITLDSGEDE”: the protein production entry is “failed”.
